This note sets out measurements from patent US20230250154A1.

For the assay, the target named is Protease Mixtures. Kind of assay: cell-based or functional assay.

B1: Variant A2M, bait region SEQ ID NO 136, P01023 24-1474 (protein)
chain: SVSGKPQYMVLVPSLLHTETTEKGCVLLSYLNETVTVSASLESVRGNRSLFTDLEAENDVLHCVAFAVPKSSSNEEVMFLTVQVKGPTQEFKKRTTVMVKNEDSLVFVQTDKSIYKPGQTVKFRVVSMDENFHPLNELIPLVYIQDPKGNRIAQWQSFQLEGGLKQFSFPLSSEPFQGSYKVVVQKKSGGRTEHPFTVEEFVLPKFEVQVTVPKIITILEEEMNVSVCGLYTYGKPVPGHVTVSICRKYSDASDCHGEDSQAFCEKFSGQLNSHGCFYQQVKTKVFQLKRKEYEMKLHTEAQIQEEGTVVELTGRQSSEITRTITKLSFVKVDSHFRQGIPFFGQVRLVDGKGVPIPNKVIFIRGNEANYYSNATTDEHGLVQFSINTTNVMGTSLTVRVNYKDRSPCYGYQWVSEEHEEAHHTAYLVFSPSKSFVHLEPMSHELPCGHTQTVQAHYILNGGTLLGLKKLSFYYLIMAKGGIVRTGTHGLLVKQEDMKGHFSISIPVKSDIAPVARLLIYAVLPTGDVIGDSAKYDVENCLANKVDLSFSPSQSLPASHAHLRVTAAPQSVCALRAVDQSVLLMKPDAELSASSVYNLLPEKDLTGFPGPLNDQDDEDCINRHNVYINGITYTPVSSTNEKDMYSFLEDMGLKAFTNSKIRKPKMCPQLEQYEMHGPKEEEGLGSIPENFFGVSELEGRGSEGEGEGEGVEEPHTKLRKYFPETWIWDLVVVNSAGVAEVGVTVPDTITEWKAGAFCLSEDAGLGISSTASLRAFQPFFVELTMPYSVIRGEAFTLKATVLNYLPKCIRVSVQLEASPAFLAVPVEKEQAPHCICANGRQTVSWAVTPKSLGNVNFTVSAEALESQELCGTEVPSVPEHGRKDTVIKPLLVEPEGLEKETTFNSLLCPSGGEVSEELSLKLPPNVVEESARASVSVLGDILGSAMQNTQNLLQMPYGCGEQNMVLFAPNIYVLDYLNETQQLTPEIKSKAIGYLNTGYQRQLNYKHYDGSYSTFGERYGRNQGNTWLTAFVLKTFAQARAYIFIDEAHITQALIWLSQRQKDNGCFRSSGSLLNNAIKGGVEDEVTLSAYITIALLEIPLTVTHPVVRNALFCLESAWKTAQEGDHGSHVYTKALLAYAFALAGNQDKRKEVLKSLNEEAVKKDNSVHWERPQKPKAPVGHFYEPQAPSAEVEMTSYVLLAYLTAQPAPTSEDLTSATNIVKWITKQQNAQGGFSSTQDTVVALHALSKYGAATFTRTGKAAQVTIQSSGTFSSKFQVDNNNRLLLQQVSLPELPGEYSMKVTGEGCVYLQTSLKYNILPEKEEFPFALGVQTLPQTCDEPKAHTSFQISLSVSYTGSRSASNMAIVDVKMVSGFIPLKPTVKMLERSNHVSRTEVSSNHVLIYLDKVSNQTLSLFFTVLQDVPVRDLKPAIVKVYDYYETDEFAIAEYNAPCSKDLGNADYKDDDDKGASHHHHHH
For B1, the Protease Inhibition (% of WT); Protease Mixtures, Collagen Substrate was 170 % of WT and the Protease Inhibition (% of WT); Protease Mixtures, IGD Substrate was 215 % of WT.

B2: Variant A2M, bait region SEQ ID NO 133, P01023 24-1474 (protein)
chain: SVSGKPQYMVLVPSLLHTETTEKGCVLLSYLNETVTVSASLESVRGNRSLFTDLEAENDVLHCVAFAVPKSSSNEEVMFLTVQVKGPTQEFKKRTTVMVKNEDSLVFVQTDKSIYKPGQTVKFRVVSMDENFHPLNELIPLVYIQDPKGNRIAQWQSFQLEGGLKQFSFPLSSEPFQGSYKVVVQKKSGGRTEHPFTVEEFVLPKFEVQVTVPKIITILEEEMNVSVCGLYTYGKPVPGHVTVSICRKYSDASDCHGEDSQAFCEKFSGQLNSHGCFYQQVKTKVFQLKRKEYEMKLHTEAQIQEEGTVVELTGRQSSEITRTITKLSFVKVDSHFRQGIPFFGQVRLVDGKGVPIPNKVIFIRGNEANYYSNATTDEHGLVQFSINTTNVMGTSLTVRVNYKDRSPCYGYQWVSEEHEEAHHTAYLVFSPSKSFVHLEPMSHELPCGHTQTVQAHYILNGGTLLGLKKLSFYYLIMAKGGIVRTGTHGLLVKQEDMKGHFSISIPVKSDIAPVARLLIYAVLPTGDVIGDSAKYDVENCLANKVDLSFSPSQSLPASHAHLRVTAAPQSVCALRAVDQSVLLMKPDAELSASSVYNLLPEKDLTGFPGPLNDQDDEDCINRHNVYINGITYTPVSSTNEKDMYSFLEDMGLKAFTNSKIRKPKMCPQLEQYEMHGPIPENFFGVEGEGEGESELEGRGSSEDLVVQIVEEPHTKLRKYFPETWIWDLVVVNSAGVAEVGVTVPDTITEWKAGAFCLSEDAGLGISSTASLRAFQPFFVELTMPYSVIRGEAFTLKATVLNYLPKCIRVSVQLEASPAFLAVPVEKEQAPHCICANGRQTVSWAVTPKSLGNVNFTVSAEALESQELCGTEVPSVPEHGRKDTVIKPLLVEPEGLEKETTFNSLLCPSGGEVSEELSLKLPPNVVEESARASVSVLGDILGSAMQNTQNLLQMPYGCGEQNMVLFAPNIYVLDYLNETQQLTPEIKSKAIGYLNTGYQRQLNYKHYDGSYSTFGERYGRNQGNTWLTAFVLKTFAQARAYIFIDEAHITQALIWLSQRQKDNGCFRSSGSLLNNAIKGGVEDEVTLSAYITIALLEIPLTVTHPVVRNALFCLESAWKTAQEGDHGSHVYTKALLAYAFALAGNQDKRKEVLKSLNEEAVKKDNSVHWERPQKPKAPVGHFYEPQAPSAEVEMTSYVLLAYLTAQPAPTSEDLTSATNIVKWITKQQNAQGGFSSTQDTVVALHALSKYGAATFTRTGKAAQVTIQSSGTFSSKFQVDNNNRLLLQQVSLPELPGEYSMKVTGEGCVYLQTSLKYNILPEKEEFPFALGVQTLPQTCDEPKAHTSFQISLSVSYTGSRSASNMAIVDVKMVSGFIPLKPTVKMLERSNHVSRTEVSSNHVLIYLDKVSNQTLSLFFTVLQDVPVRDLKPAIVKVYDYYETDEFAIAEYNAPCSKDLGNADYKDDDDKGASHHHHHH
In the case of B2, the Protease Inhibition (% of WT); Protease Mixtures, IGD Substrate is 75 % of WT.

B3: Variant A2M, bait region SEQ ID NO 134, P01023 24-1474 (protein)
chain: SVSGKPQYMVLVPSLLHTETTEKGCVLLSYLNETVTVSASLESVRGNRSLFTDLEAENDVLHCVAFAVPKSSSNEEVMFLTVQVKGPTQEFKKRTTVMVKNEDSLVFVQTDKSIYKPGQTVKFRVVSMDENFHPLNELIPLVYIQDPKGNRIAQWQSFQLEGGLKQFSFPLSSEPFQGSYKVVVQKKSGGRTEHPFTVEEFVLPKFEVQVTVPKIITILEEEMNVSVCGLYTYGKPVPGHVTVSICRKYSDASDCHGEDSQAFCEKFSGQLNSHGCFYQQVKTKVFQLKRKEYEMKLHTEAQIQEEGTVVELTGRQSSEITRTITKLSFVKVDSHFRQGIPFFGQVRLVDGKGVPIPNKVIFIRGNEANYYSNATTDEHGLVQFSINTTNVMGTSLTVRVNYKDRSPCYGYQWVSEEHEEAHHTAYLVFSPSKSFVHLEPMSHELPCGHTQTVQAHYILNGGTLLGLKKLSFYYLIMAKGGIVRTGTHGLLVKQEDMKGHFSISIPVKSDIAPVARLLIYAVLPTGDVIGDSAKYDVENCLANKVDLSFSPSQSLPASHAHLRVTAAPQSVCALRAVDQSVLLMKPDAELSASSVYNLLPEKDLTGFPGPLNDQDDEDCINRHNVYINGITYTPVSSTNEKDMYSFLEDMGLKAFTNSKIRKPKMCPQLEQYEMHGPSELEGRGSIPENFFGVKEEEGLGSSEDLVVQIVEEPHTKLRKYFPETWIWDLVVVNSAGVAEVGVTVPDTITEWKAGAFCLSEDAGLGISSTASLRAFQPFFVELTMPYSVIRGEAFTLKATVLNYLPKCIRVSVQLEASPAFLAVPVEKEQAPHCICANGRQTVSWAVTPKSLGNVNFTVSAEALESQELCGTEVPSVPEHGRKDTVIKPLLVEPEGLEKETTFNSLLCPSGGEVSEELSLKLPPNVVEESARASVSVLGDILGSAMQNTQNLLQMPYGCGEQNMVLFAPNIYVLDYLNETQQLTPEIKSKAIGYLNTGYQRQLNYKHYDGSYSTFGERYGRNQGNTWLTAFVLKTFAQARAYIFIDEAHITQALIWLSQRQKDNGCFRSSGSLLNNAIKGGVEDEVTLSAYITIALLEIPLTVTHPVVRNALFCLESAWKTAQEGDHGSHVYTKALLAYAFALAGNQDKRKEVLKSLNEEAVKKDNSVHWERPQKPKAPVGHFYEPQAPSAEVEMTSYVLLAYLTAQPAPTSEDLTSATNIVKWITKQQNAQGGFSSTQDTVVALHALSKYGAATFTRTGKAAQVTIQSSGTFSSKFQVDNNNRLLLQQVSLPELPGEYSMKVTGEGCVYLQTSLKYNILPEKEEFPFALGVQTLPQTCDEPKAHTSFQISLSVSYTGSRSASNMAIVDVKMVSGFIPLKPTVKMLERSNHVSRTEVSSNHVLIYLDKVSNQTLSLFFTVLQDVPVRDLKPAIVKVYDYYETDEFAIAEYNAPCSKDLGNADYKDDDDKGASHHHHHH
For B3, the Protease Inhibition (% of WT); Protease Mixtures, IGD Substrate was 220 % of WT.

B4: Variant A2M, bait region SEQ ID NO 135, P01023 24-1474 (protein)
chain: SVSGKPQYMVLVPSLLHTETTEKGCVLLSYLNETVTVSASLESVRGNRSLFTDLEAENDVLHCVAFAVPKSSSNEEVMFLTVQVKGPTQEFKKRTTVMVKNEDSLVFVQTDKSIYKPGQTVKFRVVSMDENFHPLNELIPLVYIQDPKGNRIAQWQSFQLEGGLKQFSFPLSSEPFQGSYKVVVQKKSGGRTEHPFTVEEFVLPKFEVQVTVPKIITILEEEMNVSVCGLYTYGKPVPGHVTVSICRKYSDASDCHGEDSQAFCEKFSGQLNSHGCFYQQVKTKVFQLKRKEYEMKLHTEAQIQEEGTVVELTGRQSSEITRTITKLSFVKVDSHFRQGIPFFGQVRLVDGKGVPIPNKVIFIRGNEANYYSNATTDEHGLVQFSINTTNVMGTSLTVRVNYKDRSPCYGYQWVSEEHEEAHHTAYLVFSPSKSFVHLEPMSHELPCGHTQTVQAHYILNGGTLLGLKKLSFYYLIMAKGGIVRTGTHGLLVKQEDMKGHFSISIPVKSDIAPVARLLIYAVLPTGDVIGDSAKYDVENCLANKVDLSFSPSQSLPASHAHLRVTAAPQSVCALRAVDQSVLLMKPDAELSASSVYNLLPEKDLTGFPGPLNDQDDEDCINRHNVYINGITYTPVSSTNEKDMYSFLEDMGLKAFTNSKIRKPKMCPQLEQYEMHGPIPENFFGVSELEGRGSSEDLVVQIKEEEGLGSVEEPHTKLRKYFPETWIWDLVVVNSAGVAEVGVTVPDTITEWKAGAFCLSEDAGLGISSTASLRAFQPFFVELTMPYSVIRGEAFTLKATVLNYLPKCIRVSVQLEASPAFLAVPVEKEQAPHCICANGRQTVSWAVTPKSLGNVNFTVSAEALESQELCGTEVPSVPEHGRKDTVIKPLLVEPEGLEKETTFNSLLCPSGGEVSEELSLKLPPNVVEESARASVSVLGDILGSAMQNTQNLLQMPYGCGEQNMVLFAPNIYVLDYLNETQQLTPEIKSKAIGYLNTGYQRQLNYKHYDGSYSTFGERYGRNQGNTWLTAFVLKTFAQARAYIFIDEAHITQALIWLSQRQKDNGCFRSSGSLLNNAIKGGVEDEVTLSAYITIALLEIPLTVTHPVVRNALFCLESAWKTAQEGDHGSHVYTKALLAYAFALAGNQDKRKEVLKSLNEEAVKKDNSVHWERPQKPKAPVGHFYEPQAPSAEVEMTSYVLLAYLTAQPAPTSEDLTSATNIVKWITKQQNAQGGFSSTQDTVVALHALSKYGAATFTRTGKAAQVTIQSSGTFSSKFQVDNNNRLLLQQVSLPELPGEYSMKVTGEGCVYLQTSLKYNILPEKEEFPFALGVQTLPQTCDEPKAHTSFQISLSVSYTGSRSASNMAIVDVKMVSGFIPLKPTVKMLERSNHVSRTEVSSNHVLIYLDKVSNQTLSLFFTVLQDVPVRDLKPAIVKVYDYYETDEFAIAEYNAPCSKDLGNADYKDDDDKGASHHHHHH
For the molecule B4, the Protease Inhibition (% of WT); Protease Mixtures, IGD Substrate was 140 % of WT.
